Reference: the nanobody polyreactivity screen of Harvey et al. (2022)

Test: yeast display, Sf9 membrane polyspecificity reagent, FACS + sequencing; frameworks hold sequencing errors
Outline: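 Nanobodies came from a synthetic yeast display library in Saccharomyces cerevisiae BJ5465, induced with galactose for 36–48 hours and stained for 1 hour at 4 °C with 10% biotinylated, detergent-solubilized Sf9 membrane reagent. Cells were enriched on streptavidin microbeads and then FACS-sorted, with low and high (top ~1%) gates set on anti-HA fluorescence for expression and streptavidin fluorescence for reagent binding. Each polyreactivity label reflects the gate a clone came from. Genes were amplified by colony PCR, sequenced by MiSeq 2 × 250 and filtered by CDR length.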

Sequence	polyreactivity (PSR sort gate)
QVQLVESGGGLVQAGGSLRLTCAASGSIFNRYSMGWYRQATGKERELVAVIRWRDGSTYYADSVKGRFTISRDNEKNTVYLQMNSLKPEDTAVYYCAAVYWGEEYEYWGQGTQVTVSS	low polyreactivity
QVQLVESGGGLVQAGGSLRLSCAASGRMFTYYAMGGYRQAPGKERELVAAINRGVVTTYYADSVKGRFTISRDHAKNTVDLQMNSLKPEDTAVYYCAADWFAANYYVNPVSALDYWGQGTQVTVSS	low polyreactivity
QVQLVESGGGLDQAGGSLRLSCAASGRIIRFYAMAWYRQAPGKERELVAAISSRGGSTYYADSVKGRFTISRDNAKNTVYLQKNSLKPEDTAVYYCAKKTWRDYAYNYWGQGTQVTVSS	high polyreactivity
QVQLVESGGGLVQAGGSLRLSCAASGRTSSVYARGWSRQAPGKEREWVAAITSSGGSTYYADSVKGRFTISRDNAKNTVYLQMNSLNPEDTAVYYCAAETYPVWGVAFYYWGQGTQVTVSS	high polyreactivity
QVQLVESGGGVVQAGGSLRLSCAASGSFFYVYAMGWYRQAPGKERELVAAITATYYADSVKGRFTISRDNAKNTVYLQMNSLKPEDTAVYYCAAAPWTYWEDYDFWGQGTQVTVSS	low polyreactivity
QVHLVESGGGLVQAGGSLRLSCAAAGSTVVYNVMGWYRQAPGKERELVAAIRWRGGSTYADSVKGRFTISRDNAKKTVYLQMNSLKPEDTAVYYCAAGIPRYWYAGHYDYWGQGTQVTVSS	low polyreactivity
QVQLVESGGGLVQAGGSLRLSCAASGRTFYSYAMGWYRQAPGKERELVAAISSSSGRTYYADSVKGRFTISRDNAKNTVYLQMNSLKPEDTAVYYCNRAGGYRTTFYSWGQGTQVTVSS	high polyreactivity
QVQLVESGGGLVQAGGSLRLSCAASGRTFTRYAMGWYRQAPGKERELVAAISRGGNTNYADSVKGLFTISRDNAKNTVYLQMNSLKPEDTAVYYCARVYGGYSVPSAYGSWGQGTQVTVSS	high polyreactivity
QVQLVESGGGLVQAGGSHRLSCAASGITFRWYTMGWYRQAPGKERELVAAITGSGCTTYYADSVKGRFTISRDNAKNNVYLQMYSLKPEDSAVYYCAAEFYGLVYVPPYDYWGQGTQVTVSS	high polyreactivity
QVQLGESGGGLVQAGGSLRLSCAASGFPFQGNAMGWSRQAPGKERELLAAISYDGGSSYYADSVKGRFTISRDNAKNTVYLQMNSLKPEDTAVYYCAAYVVTWYYYWGQGTQVTLSS	high polyreactivity
QVQLVESGGGLVQAGGSLRLSCAASGRIFAGYAMGWYRQAPGKERELVASIRSSGSTYYADSVKGRFTISRDNAKNTVYLQMNSLKPEDTAVYYCNAVPRRRRYSRLGYWGQGTQVTVSS	high polyreactivity
QVQLVESGGGLVQAGCSLRLSCAASGRTGFNAMGWYRQAPGKERELVASIRSGGTSTYYADSVKGRFTISRDNAKNTVYLQMNSLKPEDTAVYYCYDYWGHGTQVTVSS	low polyreactivity
QVQLVESGGGLVQAGGSLRLSCAASGSIFAGYVMGWYRPAPGKERELVAATYYADSVKGRFTISRDNAKNTVYLQMNSLKPEDTAVYYCNAESLYTHYNDTSLTVEYGYWGQGTQVTVSS	low polyreactivity
QVQLVESGGGLVQAGGSLRLSCAASGSTFAYYAMGWYRQAPGKERELVASISWRGGSTYYADSVKGRFTNSRDNAKNTVYLQMNSLKPEDTAVYYCAAGRFYIWSRSQEYDYWGQGTQVTVSS	low polyreactivity
QVQLVESRGRLVQAGGSLRLSCAASGFSFVINDMGRYRQAPGKERELVADITSGGDTYYADSVKGRFTISRDNAKNTVYLQKNSLKPEDTAVYYCAADIYRDLIYLLYGYWGQGTQVTVSS	low polyreactivity
QVQLVESGGGLVQAGGSLRLSRAASGFTLAYYAMGWYRQAPGKERELVAAITADTGTTYYADSVKGRFTISRDNAKNTVYLQMNSLKPEDTAVYYCATRDVFYDDDYWGQGTQVTVSS	high polyreactivity
QVQLVESGGGLVQAGGSLSLSCAASGSILVGYAMGWYRQAPGKERELVARISTSGGSTTYYADSVKGRFTISRDNAKNTVYLQMNSLKPEDTAVYYCAADYKPYYRRRYDYWGQGTQVTVSS	low polyreactivity
QVQLVESVGGLVQAGGSLRLSCAASGRIFKWYAMGWYRQAPGKERELVAAITSGGGSTYYADSVKGRFTISRDNAKNTVYLQINSLKPEDTAVYYCNAKAPAEIRSYLRTSRYDYWGQGTQVTVSS	high polyreactivity
QVQLVESGGGLVQAGGSLRLTSAASGYIFEEYDMGCYRQAPGKERELVAAIRFSSASTTYADSVKGRFTISRDNAKNTVYLQMNSLKPEDTAVYYCAVKAGDVYSDYDYWGQGTQVTVSS	low polyreactivity
QVQLVESGGGLVQAGGTLRLSCAASGLTFGYNAMVWYRQAPRKERELVATISYSGGRTYYADSVKGRFTISRDTAKNTVYLQMNSLKPEDTAVYSCAARRASGPYGFGYWGQGTQVTVSS	high polyreactivity
QVHLVESGGGLVQAGGSLRLSCAASGYIFTIYAMGWYRQAPGKERELVAAITSGGSTSYADSVKGRFTISRDNAKNTVYLQMNSLKPVDTAVYYCAAASVYAGLYYLWVYTGYDYWGQGTQVTVSS	high polyreactivity
QVQLVESGGGLVQAGGSLRLGCAASGITFTPYAMGWYRQAPGKERELVAAISWRGGSTYYADSVKGRFTISRDNAKNTVYLQMNSLKPEDTAVYFCAKDGRGYGRYSRYYTGDYWGQGTQVTVSS	low polyreactivity

Sequence	polyreactivity (PSR sort gate)
QGQLVETGGGLVQAGGSLRLSCAASGSTFSYYAMGWYRQAPGKEREWVAAISRRGGSTYYADSVKGRFTISRDNAKNTVYLQMISLKPEDTAVNYCAADDYYSSRIEYYNWGQGTQVTVSS	high polyreactivity
QVQLVESGGGLVQAGGSLRLRCAASGSIFFFYAMGWYRQAPGKERELVAAISKSPSSTYYADSVKGRFTISRDNAKNTVYLQMNSLKPEDTAVYYCNNGYSGIQYYYWGHGTQVTVSS	low polyreactivity
QVQLVESGGGLVQAGGSLRLSCAASGSTFRLNAMGWYRQAPGKERELVAAITSGGSTTYADSVKGRFTISRDNAKNTVYLQMNSLKPEDTAVYYCAAANWGTPPYDYWGQGTQVTVSS	low polyreactivity
QVQLVESGGGLVQAGGSLRLSCAASGRIFDRYVMGWYRQAPVKERALVAAISDGGSTYYADSVKGRFTISRDNAKNTVYLQMISLKPEDTAVYYCNAAFYPNENYYLIYDYWGQGTQVTVSS	low polyreactivity
QVQLVESGGGLVQAGGSLRLSCAASGSTFDSNAMGWYRQAPGKERELVAPISGSASRTYYADSVKGRFTISRDNAKNTVYLQMNSLKPEDTAVYYCAAVRYHMYYWGQGTQVTVSS	high polyreactivity
QVQLVESRGGLVQAGGSLRLSCAASGSIFRPYAMGWYRQAPGKERELVAAISSSGGSTYYADSVKGRFTISRDNAKNTVYLQMNSLKPEDTAVYYCAAESRSTWIHSRDYWGQGTQVTVSS	low polyreactivity
QVQLVESGGGLVQAGGSLRLSCAASGRIFVHNSMGWYRQAPGKERELVAAISSCGRTYYADSVKGRFTISRDNAKNTVYFQMNSLKPEDTAVYYCNAGRTNRAGRRWPMDYWGQGTHVTVSS	high polyreactivity
QVQLVESGGGLVQAGVSLRLSCAASAFILEGYAMGWYTQAPGKERELVAAISDSGGSTYYADSVKGRFTISRDNAKNTVYLQMNSLKPEDTAVYYCATAYYWWTAYSYSYDHWGQGTQVTVSS	high polyreactivity
QVQLEESRGGIVQAGGSLRLSCAASGFTFSTYAMGWYRPAPGKELELVASISRSGNTNYADSVKGRFTISRDNAKNTVYLQMKSLKPEDTAVYSSAAELVYRRVRYDYWGQGTQVTVSS	high polyreactivity
QVQLVESGGGLDQAGGSLPLSCAASGRTFRYYDRGSYRQAPGKERELVARISISGAGTYYADSVKGRFTISRDNAKNTVYFEMNSLKPEDTAVYYCAADLFWWQKTISGGDYWGQGTQVNVSS	low polyreactivity
QVQLVESGGGLVQAGGSLRLSCAACGGTFRSNAMGWYRQAPGKERELVAASTNYADSVKGRFTISRDNAKNTVYLQMNSLKPEDTAVYYCAAGPTDSQTGMDYWGQGTQVTVSS	low polyreactivity
QVQLVESGGGLVQAGGSLRLSCAASGSTFTGYAMGWYRQAPGKERELVAAISRSVGRTYYADSVKGRFTISRDNAKNTVYLQMNSLKPEETAVYYCAADVFLTGSRNYYWGQGTQVTVSS	high polyreactivity
QVQLVESGGGLVQAGGSLRLSCAASGSIFSNYAMGWYRQAPGKERELVAAISRNGGSTSYADSVKGRFTISRDNAKNTVYLQMNSLKPEDTAVYYCAAVYVTGSYRYGYWGQGTQVTVSS	high polyreactivity
QVQLVESGGGLVQAGGSLRLSCAASRRIIYRSAMGWYRQAPGKERELLAAITSGDSTYYADSVKVRFTISRDNSKNTVFLQMNSLKPEDTAVYYCAADYLSRSPAYEHYYWGQGTQVTVSS	high polyreactivity
QVQLVESGGGIVQAGGSLRLSCAASGLTIPPNAMGWYRQAPGKEREFVAAITWSGGSTYYADSVKGRFTISRDNAKNTVYLQMNRLKPEDSAVYYCNRVTAYYPTKFDYWGQGTQVTVSS	high polyreactivity
QVQLVESGGGLVQAGGSLRLSCAASGSTFQTNAMGWYRQAPGKERELVAAINSGGGTNYADSVKGRFTISRDNAKNTVYLQMNSLKPEDTAVYYCATDVLPRKYVSDYPSGAYDYWGQGTQVTVSS	low polyreactivity
KDQLVESGVGLVQAGCSLRLSCAASGRTLRRNAMGWYRQAPRKERELVAAISTGGGSTYYADSVKGRFTISRDNAKNTVYLQMNSLKPVDTAVYYCAAVYSQSTKRYELYYWGQGTQVTVSS	high polyreactivity
QVQLVESGGGLVQAGGSLRLSCAASGRTFRLYAMGWYRQAPGKERELDAAIRTDDSTNYADSVKGRFTISRDNAKNTVYLQMNSLKPEDTAVYYCNAEGQFTWLGRRRHKFEYWGQGTQVTVSS	low polyreactivity
QVQLVESGGGLVQAGGSLRLSCAASGRIFYSYAMAWYRQAPGKERELVAAISSRTGSTYYADSVKGRFTISRDNAKITVYLQMNSLIPEDTAVYYCAARKKYRFDYWGQGTQVTVSS	high polyreactivity
QVQLVESGGRLVQAGGSLRLSCAASGRTFRWYAMGWYRQAPGKEREVVAAITFSGGSTYYADSVKGRFTISRDIAKNTVYLQMNSLKPEDTAVYYCNAVYYRRKEYDYWGQGTQVTVSS	high polyreactivity
QVQLVESGGGLVQAGGSLRLSCAASGSTIYYNAMGWYRQAPGKERELVAAISKSSSRTYYADSVKGRFTISRDNAKYSVYLQMNSLKPEDTAVYYCAADAVYYHFDYWGQGTQVTVSS	high polyreactivity
